Experimental data taken from US20200323888A1, “INHIBITORS” (VESTLANDETS INNOVASJONSSELSKAP AS, priority 2017, published 2020).
One block for each molecule: values may come before it. Primed or numbered codes have the meaning given here. Ends that are not written are not given here. Ac′ = acetamide linker; CoA = coenzyme A

Assays:
NatA = molecular target: T1, NatA (Homo sapiens, UniProt P41227); settings: NatA complex; Foyn et al. 2013; cited from earlier work
T1 construct: endogenous in cells
T1 sequence (P41227 1-235): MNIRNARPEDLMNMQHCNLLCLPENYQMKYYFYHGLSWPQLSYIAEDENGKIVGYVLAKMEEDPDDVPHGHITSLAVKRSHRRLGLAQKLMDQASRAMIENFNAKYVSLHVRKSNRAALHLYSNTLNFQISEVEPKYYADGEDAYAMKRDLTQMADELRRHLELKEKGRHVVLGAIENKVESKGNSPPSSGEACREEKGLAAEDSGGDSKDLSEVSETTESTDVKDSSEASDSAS
T1 sequence (Q9BXJ9 1-866 partner): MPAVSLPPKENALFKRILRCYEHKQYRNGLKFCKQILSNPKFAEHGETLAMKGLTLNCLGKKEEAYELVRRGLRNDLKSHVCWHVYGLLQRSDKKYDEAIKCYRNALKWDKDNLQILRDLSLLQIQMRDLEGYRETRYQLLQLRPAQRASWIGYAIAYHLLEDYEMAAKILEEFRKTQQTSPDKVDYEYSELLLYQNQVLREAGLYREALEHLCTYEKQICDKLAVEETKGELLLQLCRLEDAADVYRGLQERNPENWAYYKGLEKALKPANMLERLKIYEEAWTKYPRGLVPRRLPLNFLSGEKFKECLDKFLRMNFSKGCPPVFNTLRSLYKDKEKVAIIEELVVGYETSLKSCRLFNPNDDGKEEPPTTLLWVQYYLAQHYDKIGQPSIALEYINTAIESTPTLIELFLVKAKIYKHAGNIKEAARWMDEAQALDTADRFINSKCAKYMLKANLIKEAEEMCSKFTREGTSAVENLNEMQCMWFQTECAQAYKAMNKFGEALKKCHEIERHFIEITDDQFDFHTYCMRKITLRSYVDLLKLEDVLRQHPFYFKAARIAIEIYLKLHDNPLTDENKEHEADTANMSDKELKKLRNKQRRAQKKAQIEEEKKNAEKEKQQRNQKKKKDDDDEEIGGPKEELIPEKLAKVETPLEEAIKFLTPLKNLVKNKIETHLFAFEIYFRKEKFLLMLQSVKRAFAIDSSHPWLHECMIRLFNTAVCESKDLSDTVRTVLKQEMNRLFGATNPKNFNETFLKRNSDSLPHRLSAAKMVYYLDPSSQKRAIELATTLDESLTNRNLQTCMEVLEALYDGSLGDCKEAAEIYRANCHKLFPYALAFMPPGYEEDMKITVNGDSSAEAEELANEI

Naa50 = molecular target: T2, Naa50 (Homo sapiens, UniProt Q9GZZ1); settings: NatE/hNaa50; Foyn et al. 2013; cited from earlier work
T2 sequence (Q9GZZ1 1-169): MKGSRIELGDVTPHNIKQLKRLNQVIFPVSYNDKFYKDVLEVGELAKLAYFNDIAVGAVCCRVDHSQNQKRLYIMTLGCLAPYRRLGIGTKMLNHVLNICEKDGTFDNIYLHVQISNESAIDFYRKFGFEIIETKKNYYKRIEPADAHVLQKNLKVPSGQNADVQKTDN

[1] = molecular target: T3, MBP-HishNAA80 fusion protein (MBP-Naa80) (human, UniProt Q93015-2 1-308); assay: cell-based or functional assay
T3 sequence (looked up): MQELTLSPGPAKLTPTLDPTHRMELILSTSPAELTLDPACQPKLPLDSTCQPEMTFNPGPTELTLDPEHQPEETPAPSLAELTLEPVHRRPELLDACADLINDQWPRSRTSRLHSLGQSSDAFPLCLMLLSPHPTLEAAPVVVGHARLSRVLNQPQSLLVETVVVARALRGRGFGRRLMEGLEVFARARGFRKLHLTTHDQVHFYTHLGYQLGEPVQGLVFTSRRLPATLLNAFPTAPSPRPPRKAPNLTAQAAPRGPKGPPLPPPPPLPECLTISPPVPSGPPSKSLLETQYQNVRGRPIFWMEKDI

[2] = molecular target: T3, MBP-HishNAA80 fusion protein (MBP-Naa80); assay: cell-based or functional assay; remark: listed apart in the source
Naa10 (monomeric) = molecular target: T4, Naa10 (monomeric) (human, UniProt P41227 1-235, limits assumed); assay: Ki from Nt-acetylation inhibitor assay, panel of human NATs
T4 construct: also called hNaa10; Ard1
T4 sequence (looked up): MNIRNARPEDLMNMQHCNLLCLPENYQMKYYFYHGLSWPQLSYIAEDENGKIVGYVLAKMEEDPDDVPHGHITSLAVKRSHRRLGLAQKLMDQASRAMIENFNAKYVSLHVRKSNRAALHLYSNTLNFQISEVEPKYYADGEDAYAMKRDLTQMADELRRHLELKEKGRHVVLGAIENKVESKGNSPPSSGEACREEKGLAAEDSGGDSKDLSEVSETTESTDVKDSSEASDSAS

[3] = molecular target: T3, MBP-HishNAA80 fusion protein (MBP-Naa80); assay: as above

Molecule: CC(C)(COP(=O)(O)OP(=O)(O)OCC1OC(n2cnc3c(N)ncnc32)C(O)C1OP(=O)(O)O)C(O)C(=O)NCCC(=O)NCCSCC(=O)N[C@@H](CO)C(=O)N[C@@H](CCC(=O)O)C(=O)N[C@@H](CO)C(=O)N[C@@H](CO)C(N)=O (stereo partly shown) [CoA-Ac-SESS]
IC50 (NatA): 15100 nM

Molecule: CoA-Ac-MLG7: Previously disclosed bisubstrate analogue inhibitor of NatE/hNaa50 (SEQ ID NO: 49), Foyn 2013 ({CoA-Ac′}-MLGPEGG)
IC50 (Naa50): 1290 nM

fold more potent than CoA-Ac-EEEI-NH2 (IC50) [1]: 3 fold
fold more potent than CoA-Ac-MDEL-NH2 (IC50) [1]: 3.3 fold
IC50 (µM), Nt-acetylation inhibition [2]: 0.38 µM
fold reduced potency for Naa10 compared to Naa80 (Naa10 (monomeric)): 88 fold
Ki [3]: 43 nM
Molecule: {CoA-Ac}-DDDI-NH2 [CoA-Ac-DDDI-NH2]
